Data taken from ChEMBL document CHEMBL4706520, “Development of disulfide-derived fructose-1,6-bisphosphatase (FBPase) covalent inhibitors for the treatment of type 2 diabetes” (Eur J Med Chem, 2020).

Compound: c1csc(SSc2nccs2)n1
Test: Covalent inhibition of FBPase WT (unknown origin) assessed as Vmax measured at 45 mins
Details: Homo sapiens

B1: Fructose-1,6-bisphosphatase 1 (Homo sapiens), P09467 (protein)
chain: MADQAPFDTDVNTLTRFVMEEGRKARGTGELTQLLNSLCTAVKAISSAVRKAGIAHLYGIAGSTNVTGDQVKKLDVLSNDLVMNMLKSSFATCVLVSEEDKHAIIVEPEKRGKYVVCFDPLDGSSNIDCLVSVGTIFGIYRKKSTDEPSEKDALQPGRNLVAAGYALYGSATMLVLAMDCGVNCFMLDPAIGEFILVDKDVKIKKKGKIYSLNEGYARDFDPAVTEYIQRKKFPPDNSAPYGARYVGSMVADVHRTLVYGGIFLYPANKKSPNGKLRLLYECNPMAYVMEKAGGMATTGKEAVLDVIPTDIHQRAPVILGSPDDVLEFLKVYEKHSAQ
  Vmax: 4 U/mg
